Results reported in article PMC12753876.

What was measured:
[1] = biological target: HsFA3 E188R in pGBKT7 (BD) (UniProt Q8GYY1); test: yeast two-hybrid (beta-galactosidase, Miller units); settings: n=3; parent: est. 270; read off a plot
[2] = biological target: HsFA3 E188R in pGBKT7 (BD) (Arabidopsis thaliana) (UniProt Q8GYY1); test: two-hybrid; CRY1 as prey in pGADT7 (AD), HsF as bait in pGBKT7 (BD), co-transformed into yeast Y187; liquid beta-galactosidase assay with CPRG, Miller units; not detected (ND) if OD578 <0.01 after 3 h of color development
Sequence of HsFA3 E188R in pGBKT7 (BD) (Arabidopsis thaliana) (Q8GYY1 whole entry E188R): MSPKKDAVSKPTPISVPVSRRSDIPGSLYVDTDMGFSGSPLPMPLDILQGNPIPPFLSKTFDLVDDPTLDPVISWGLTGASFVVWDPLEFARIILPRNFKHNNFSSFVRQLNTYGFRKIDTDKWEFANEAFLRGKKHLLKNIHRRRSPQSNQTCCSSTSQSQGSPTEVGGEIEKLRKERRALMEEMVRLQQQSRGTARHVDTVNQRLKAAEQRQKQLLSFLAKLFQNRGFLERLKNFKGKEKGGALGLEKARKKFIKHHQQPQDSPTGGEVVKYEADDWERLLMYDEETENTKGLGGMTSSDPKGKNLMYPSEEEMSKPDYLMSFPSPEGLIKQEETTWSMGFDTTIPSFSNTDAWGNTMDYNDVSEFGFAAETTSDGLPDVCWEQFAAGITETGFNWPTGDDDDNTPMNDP

[3] = biological target: HsFA1e^R126E in pGBKT7 (BD) (Arabidopsis thaliana) (UniProt Q9SCW5); test: as above
Sequence of HsFA1e^R126E in pGBKT7 (BD) (Arabidopsis thaliana) (Q9SCW5 whole entry, stated change not applied): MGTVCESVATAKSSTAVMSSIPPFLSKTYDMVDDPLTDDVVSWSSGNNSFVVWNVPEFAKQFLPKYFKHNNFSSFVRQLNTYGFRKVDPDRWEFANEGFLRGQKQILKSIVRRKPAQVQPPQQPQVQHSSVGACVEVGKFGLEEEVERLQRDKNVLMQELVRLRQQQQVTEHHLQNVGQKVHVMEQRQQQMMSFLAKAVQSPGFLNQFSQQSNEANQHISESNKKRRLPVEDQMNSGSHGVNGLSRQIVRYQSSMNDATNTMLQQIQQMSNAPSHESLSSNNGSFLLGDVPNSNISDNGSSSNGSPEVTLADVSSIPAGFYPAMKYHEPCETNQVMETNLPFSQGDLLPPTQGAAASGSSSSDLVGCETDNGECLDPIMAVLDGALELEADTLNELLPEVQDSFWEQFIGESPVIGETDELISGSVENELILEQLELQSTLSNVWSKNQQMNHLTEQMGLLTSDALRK

Sequence of HsFA3 E188R in pGBKT7 (BD) (Q8GYY1 whole entry E188R): as the sequence (Q8GYY1 whole entry E188R) above
Sequence of CRY1^(PHR WT) in pGADT7 (AD) (Q43125 1-508): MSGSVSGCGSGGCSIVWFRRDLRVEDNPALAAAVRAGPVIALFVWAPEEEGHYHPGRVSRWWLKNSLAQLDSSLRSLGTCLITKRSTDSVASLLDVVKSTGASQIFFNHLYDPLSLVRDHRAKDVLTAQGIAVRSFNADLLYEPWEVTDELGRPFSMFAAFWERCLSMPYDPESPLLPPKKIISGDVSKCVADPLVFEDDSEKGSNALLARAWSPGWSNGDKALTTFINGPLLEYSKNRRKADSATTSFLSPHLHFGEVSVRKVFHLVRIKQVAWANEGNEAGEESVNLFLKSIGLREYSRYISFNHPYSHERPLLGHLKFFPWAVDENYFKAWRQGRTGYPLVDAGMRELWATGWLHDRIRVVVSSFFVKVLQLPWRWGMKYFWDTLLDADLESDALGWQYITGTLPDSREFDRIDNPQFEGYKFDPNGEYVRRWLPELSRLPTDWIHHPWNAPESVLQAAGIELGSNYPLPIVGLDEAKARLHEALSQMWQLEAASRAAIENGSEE

For m1; m17 CRY1:R435E; HsFA3:E188R, the response [1] was 170 Miller Units.

m1; m17 CRY1:R211E; HsFA3:E188R showed a response [1] of 90 Miller Units.

Work on “CRY1^(PHR WT) in pGADT7 (AD) (from UniProt Q43125 1-508) (domain or fragment)” yielded a reduction of Y2H interaction relative to WT [2] of 0.33 and a fold increase of Y2H interaction relative to WT [3] of 40 fold.

In the case of “m1; m17 CRY1:R211E; CRY1:R435E; HsFA3:E188R”, the response [1] is reported as 300 Miller Units.
